Data: patent publication US20060251733A1

Molecular target: FcγR (receptor for the Fc portion of immunoglobulin molecule) on bone marrow derived macrophages (mouse)
Experiment: cell-based or functional assay

IL-10 production by BMMφ (ELISA of supernatants), LPS + E-IgG: 10 ng/mL
IL-10 production by BMMφ (ELISA of supernatants), LPS + E-IgG against LPS alone: > 5 fold
Substance: IgG-opsonized erythrocytes (E-IgG): sheep erythrocytes (SRBC) opsonized with rabbit IgG antibody to SRBC
